Where two headings read alike, the source gives them in different places.

The text below walks through data of PMC7608808 (Science Advances, 2020).

Data set [1] deals with the molecule itself. The data set is described as follows: cryo-EM structure.
Data set [2] deals with the molecule itself. The data set is described as follows: cryo-EM structure. The source holds these as a separate data set.

B1: SugC (natural protein)
chain: MAEIVLDRVTKSYPDGAGGVRAAVKEFSMTIADGEFIILVGPSGCGKSTTLNMIAGLEEITSGELRIGGERVNEKAPKDRDIAMVFQSYALYPHMTVRQNIAFPLTLAKVPKAEIAAKVEETAKILDLSELLDRKPGQLSGGQRQRVAMGRAIVRSPKAFLMDEPLSNLDAKLRVQMRAEISRLQDRLGTTTVYVTHDQTEAMTLGDRVVVMLAGEVQQIGTPDELYSSPANLFVAGFIGSPAMNFFPATRTDVGVRLPFGEVTLTPHMLDLLDKQARPENIIVGIRPEHIEDSALLDGYARIRALTFSVRADIVESLGADKYVHFTTEGAGAESAQLAELAADSGAGTNQFIARVSADSRVRTGEQIELAIDTTKLSIFDAATGLNLTRDITPTDPTEAAGPDAG
With B1, the binding result in the data set “cryo-EM structure [1]” was “binds”.

B2: SugC (E164Q) (natural protein)
chain: MAEIVLDRVTKSYPDGAGGVRAAVKEFSMTIADGEFIILVGPSGCGKSTTLNMIAGLEEITSGELRIGGERVNEKAPKDRDIAMVFQSYALYPHMTVRQNIAFPLTLAKVPKAEIAAKVEETAKILDLSELLDRKPGQLSGGQRQRVAMGRAIVRSPKAFLMDQPLSNLDAKLRVQMRAEISRLQDRLGTTTVYVTHDQTEAMTLGDRVVVMLAGEVQQIGTPDELYSSPANLFVAGFIGSPAMNFFPATRTDVGVRLPFGEVTLTPHMLDLLDKQARPENIIVGIRPEHIEDSALLDGYARIRALTFSVRADIVESLGADKYVHFTTEGAGAESAQLAELAADSGAGTNQFIARVSADSRVRTGEQIELAIDTTKLSIFDAATGLNLTRDITPTDPTEAAGPDAG
As for B2, in “cryo-EM structure [2]”, the binding result was “binds”.
